Laboratory results as given in US20230017515A1 (JIANGSU ALPHAMAB BIOPHARMACEUTICALS, published 2023).

Target: T1, human PD-L1 (WT) (human, UniProt Q9NZQ7 19-127, limits assumed)
T1 construct: also called human PD-L1 N-terminal IgV domain
Assay: affinity measurement, method not stated

T1 sequence (Q9NZQ7 19-127 limits assumed): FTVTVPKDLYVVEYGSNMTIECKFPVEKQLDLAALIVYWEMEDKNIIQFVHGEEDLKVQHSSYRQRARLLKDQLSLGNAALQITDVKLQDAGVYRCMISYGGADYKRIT

B1: PD-L1 ISVD-9 (VHH)
VHH: QVQLVESGGGLVQPGGSLRLSCAASGKMSSRRCMAWFRQAPGKERERVAKLLTTSGSTYLADSVKGRFTISRDNSKNTVYLQMNSLRAEDTAVYYCAADSFEDPTCTLVTSSGAFQYWGQGTLVTVSS
notes: also called ISVD specific for PD-L1; aPDL1.9
In the case of B1, the Kd is reported as 5.92 nM.
